Data taken from US20150307599A1 (GARVAN INSTITUTE OF MEDICAL RESEARCH, published 2015).
Where no end group is shown, it is not given here.

What was measured:
Assay in all cases: indirect ELISA, peptide coated on the plate (20 µg/mL), MAb 5E12-B7 at 1 µg/mL, O.D. 450 nm
[1] = target: T1, 1p26-YSALRHYINL
T1 construct: NPY residues 21-30; also called Peptide 1p26 (10 mer shifting across NPY)
T1 peptide: YSALRHYINL-NH2
Method: (§1) ELISA was used to map the reactivity of purified MAb 5E12-B7 against the peptides described in Table 3. Briefly, ELISA microwell plates (96-well Maxisorp, Nunc) were coated overnight at 4° C. with 50 μL of mapping peptides (Table 3) diluted to 20 μg/mL in carbonate coating buffer (CCB). Between each of the following steps, microwell plates were washed three times with PBST using a plate washer (BioTek). Coated wells were blocked with 200 μL PBS containing 5% w/v skim milk (Diploma). Blocked wells were incubated for 1 hr with 50 μL of MAb 5E12-B7 diluted to 1 μg/mL in skim milk/PBST. Wells were then incubated for 1 hr with 50 μL Peroxidase-conjugated AffiniPure F(ab)2 fragment goat anti-mouse secondary antibody (Jackson) diluted 1:5000 in skim milk/PBST. Ig binding was detected by incubation of wells with 50 μL TMB substrate (Becton Dickinson). Substrate reaction was stopped after 15 min with 50 μL 1M H₂SO₄ and O.D. 450 nm was measured.

[2] = target: T2, 1p21-DMARYYSALR
T2 construct: NPY residues 16-25; also called Peptide 1p21 (10 mer shifting across NPY)
T2 peptide: DMARYYSALR-NH2
Method: as §1

[3] = target: T3, 1p24-RYYSALRHYI
T3 construct: NPY residues 19-28; also called Peptide 1p24 (10 mer shifting across NPY)
T3 peptide: RYYSALRHYI-NH2
Method: as §1

[4] = target: T4, 1p23-ARYYSALRHY
T4 construct: NPY residues 18-27; also called Peptide 1p23 (10 mer shifting across NPY)
T4 peptide: ARYYSALRHY-NH2
Method: as §1

[5] = target: T5, 1p25-YYSALRHYIN
T5 construct: NPY residues 20-29; also called Peptide 1p25 (10 mer shifting across NPY)
T5 peptide: YYSALRHYIN-NH2
Method: as §1

[6] = target: T6, 1p19-AEDMARYYSA
T6 construct: also called Peptide 1p19 (10 mer shifting across NPY)
T6 peptide: AEDMARYYSA-NH2
Method: as §1

[7] = target: T7, 1p28-ALRHYINLIT
T7 construct: NPY residues 23-32; also called Peptide 1p28 (10 mer shifting across NPY)
T7 peptide: ALRHYINLIT-NH2
Method: as §1

[8] = target: T8, 1p31-HYINLITRQR
T8 construct: NPY residues 26-35; also called Peptide 1p31 (10 mer shifting across NPY)
T8 peptide: HYINLITRQR-NH2
Method: as §1

[9] = target: T9, 1p20-EDMARYYSAL
T9 construct: NPY residues 15-24; also called Peptide 1p20 (10 mer shifting across NPY)
T9 peptide: EDMARYYSAL-NH2
Method: as §1

[10] = target: T10, 1p22-MARYYSALRH
T10 construct: NPY residues 17-26; also called Peptide 1p22 (10 mer shifting across NPY)
T10 peptide: MARYYSALRH-NH2
Method: as §1

[11] = target: T11, 1p30-RHYINLITRQ
T11 construct: NPY residues 25-34; also called Peptide 1p30 (10 mer shifting across NPY)
T11 peptide: RHYINLITRQ-NH2
Method: as §1

[12] = target: T12, 1p27-SALRHYINLI
T12 construct: NPY residues 22-31; also called Peptide 1p27 (10 mer shifting across NPY)
T12 peptide: SALRHYINLI-NH2
Method: as §1

[13] = target: T13, 1p29-LRHYINLITR
T13 construct: NPY residues 24-33; also called Peptide 1p29 (10 mer shifting across NPY)
T13 peptide: LRHYINLITR-NH2
Method: as §1

Measured: binding result

B1: MAb 5E12-B7 (antibody, V domains shown)
VH: QVQLQHPGTEVVKPGASVKLSCKASGYTFTNYWMHWVKQRPGQGLEWIGNIDPSNGGTNYNEKFKSKATLTVDKSSSTAYMQLSSLTSEDSAVYYCASFAYWGQGTLVTVSA
VL: DIQMTQSPASLSASVGETVTITCRASGNIHNYLAWYQQKQGKSPQLLVYNAKTLADGVPSRFSGSGSGTQYSLKISSLRPEDFGSYYCQHFWSPPFTFGSGTKLEIK
notes: Biotinylated for the Biacore and Octet assays; also called PYY/NPY antibody (5E12); anti-NPY/PYY antibody 5E12
no binding (tested: 1 µg/mL): all assays above
